Source: the Human Domainome abundance scans (Beltran et al. 2025)
± gives the uncertainty stated by the source.

B1: Nuclear receptor subfamily 4 group A member 2, residues 260 to 336; numbered along this chain, P43354 (parent)
chain: EGLCAVCGDNAACQHYGVRTCEGCKGFFKRTVQKNAKYVCLANKNCPVDKRRRNRCQYCRFQKCLAVGMVKEVVRTD

Variants of: B1
Assay: abundance fitness (aPCA) (normalised: wild type 0, dead -1); higher = more abundant; growth selection in yeast, the domain comes from the species named
Settings: Homo sapiens

| Variant | abundance fitness |
| --- | --- |
| EGLCAVCGDNAACQHYGVRTCEGCKGFFKRTVQKNAKYVCLANKNCPVDKRRRNRCQYCRFQKCLAVGMVKEVARTD | -0.1 ± 0.1 |
| EGLCAVCGDNAACQHYGVRTCEGCKGFFKRTVQKNAKYVCLANKNCPVDKRRRNRCQYCRFQKCLAVGMVKEVSRTD | -0.101 ± 0.12 |
| EGLCAVCGDNAACQHYGVRTCEGCKGFFKRTVQKNAKYVCLANKNCPVDKRRRNRCQYCRFQKCLAVGMVKEVDRTD | 0.131 ± 0.13 |
| EGLCAVCGDNAACQHYGVRTCEGCKGFFKRTVQKNAKYVCLANKNCPVDKRRRNRCQYCRFQKCLAVGMVKERVRTD | -0.099 ± 0.091 |
| EGLCAVCGDNAACQHYGVRTCEGCKGFFKRTVQKNAKYVCLANKNCPVDKRRRNRCQYCRFQKCLAVGMVKETVRTD | 0.274 ± 0.43 |
| EGLCAVCGDNAACQHYGVRTCEGCKGFFKRTVQKNAKYVCLANKNCPVDKRRRNRCQYCRFQKCLAVGMVKESVRTD | -0.305 ± 0.17 |
| EGLCAVCGDNAACQHYGVRTCEGCKGFFKRTVQKNAKYVCLANKNCPVDKRRRNRCQYCRFQKCLAVGMVKEWVRTD | -0.104 ± 0.053 |
| EGLCAVCGDNAACQHYGVRTCEGCKGFFKRTVQKNAKYVCLANKNCPVDKRRRNRCQYCRFQKCLAVGMVKEVVRTR | -0.3 ± 0.089 |
| EGLCAVCGDNAACQHYGVRTCEGCKGFFKRTVQKNAKYVCLANKNCPVDKRRRNRCQYCRFQKCLAVGMVKEVVRTP | 0.163 ± 0.18 |
| EGLCAVCGDNAACQHYGVRTCEGCKGFFKRTVQKNAKYVCLANKNCPVDKRRRNRCQYCRFQKCLAVGMVKEVVRTW | -0.211 ± 0.075 |
| EGLCAVCGDNAACQHYGVRTCEGCKGFFKRTVQKNAKYVCLANKNCPVDKRRRNRCQYCRFQKCLAVGMVKEVVRTE | 0.117 ± 0.14 |
| EGLCAVCGDNAACQHYGVRTCEGCKGFFKRTVQKNAKYVCLANKNCPVDKRRRNRCQYCRFQKCLAVGMVKEVVRTS | -0.124 ± 0.12 |
| EGLCAVCGDNAACQHYGVRTCEGCKGFFKRTVQKNAKYVCLANKNCPVDKRRRNRCQYCRFQKCLAVGMVKEVVRTC | -0.061 ± 0.095 |
| EGLCAVCGDNAACQHYGVRTCEGCKGFFKRTVQKNAKYVCLANKNCPVDKRRRNRCQYCRFQKCLAVGMVKEVVRTA | -0.006 ± 0.086 |
| EGLCAVCGDNAACQHYGVRTCEGCKGFFKRTVQKNAKYVCLANKNCPVDKRRRNRCQYCRFQKCLAVGMVKEVVRTF | -0.229 ± 0.15 |
| EGLCAVCGDNAACQHYGVRTCEGCKGFFKRTVQKNAKYVCLANKNCPVDKRRRNRCQYCRFQKCLAVGMVKEVVRTV | -0.122 ± 0.065 |
| EGLCAVCGDNAACQHYGVRTCEGCKGFFKRTVQKNAKYVCLANKNCPVDKRRRNRCQYCRFQKCLAVGMVKEVVRTM | -0.092 ± 0.14 |
| EGLCAVCGDNAACQHYGVRTCEGCKGFFKRTVQKNAKYVCLANKNCPVDKRRRNRCQYCRFQKCLAVGMVKEVVRTI | -0.347 ± 0.31 |
| EGLCAVCGDNAACQHYGVRTCEGCKGFFKRTVQKNAKYVCLANKNCPVDKRRRNRCQYCRFQKCLAVGMVKEVVRTL | -0.101 ± 0.077 |

| Variant | abundance fitness |
| --- | --- |
| EGLCAVCGDNAACQHYGVRTCEGCKGFFKRTVQKNAKYVCLANKNCPVDKRRRNRCQYCRFQKCLAVGMVKEVVRTG | -0.042 ± 0.044 |
| EGLCAVCGDNAACQHYGVRTCEGCKGFFKRTVQKNAKYVCLANKNCPVDKRRRNRCQYCRFQKCLAVGMVKEVVRTK | -0.1 ± 0.18 |
| EGLCAVCGDNAACQHYGVRTCEGCKGFFKRTVQKNAKYVCLANKNCPVDKRRRNRCQYCRFQKCLAVGMVKEVVRED | 0.161 ± 0.13 |
| EGLCAVCGDNAACQHYGVRTCEGCKGFFKRTVQKNAKYVCLANKNCPVDKRRRNRCQYCRFQKCLAVGMVKEVVRYD | 0.168 ± 0.13 |
| EGLCAVCGDNAACQHYGVRTCEGCKGFFKRTVQKNAKYVCLANKNCPVDKRRRNRCQYCRFQKCLAVGMVKEVVRFD | -0.079 ± 0.1 |
| EGLCAVCGDNAACQHYGVRTCEGCKGFFKRTVQKNAKYVCLANKNCPVDKRRRNRCQYCRFQKCLAVGMVKEVVRDD | 0.098 ± 0.098 |
| EGLCAVCGDNAACQHYGVRTCEGCKGFFKRTVQKNAKYVCLANKNCPVDKRRRNRCQYCRFQKCLAVGMVKEVVRID | -0.007 ± 0.19 |
| EGLCAVCGDNAACQHYGVRTCEGCKGFFKRTVQKNAKYVCLANKNCPVDKRRRNRCQYCRFQKCLAVGMVKEVVRVD | -0.019 ± 0.052 |
| EGLCAVCGDNAACQHYGVRTCEGCKGFFKRTVQKNAKYVCLANKNCPVDKRRRNRCQYCRFQKCLAVGMVKEVVRSD | -0.014 ± 0.1 |
| EGLCAVCGDNAACQHYGVRTCEGCKGFFKRTVQKNAKYVCLANKNCPVDKRRRNRCQYCRFQKCLAVGMVKEVVRND | 0.221 ± 0.42 |
| EGLCAVCGDNAACQHYGVRTCEGCKGFFKRTVQKNAKYVCLANKNCPVDKRRRNRCQYCRFQKCLAVGMVKEVVRWD | -0.085 ± 0.053 |
| EGLCAVCGDNAACQHYGVRTCEGCKGFFKRTVQKNAKYVCLANKNCPVDKRRRNRCQYCRFQKCLAVGMVKEVVRKD | -0.041 ± 0.18 |
| EGLCAVCGDNAACQHYGVRTCEGCKGFFKRTVQKNAKYVCLANKNCPVDKRRRNRCQYCRFQKCLAVGMVKEVVRPD | -0.004 ± 0.37 |
| EGLCAVCGDNAACQHYGVRTCEGCKGFFKRTVQKNAKYVCLANKNCPVDKRRRNRCQYCRFQKCLAVGMVKEVVRRD | 0.015 ± 0.068 |
| EGLCAVCGDNAACQHYGVRTCEGCKGFFKRTVQKNAKYVCLANKNCPVDKRRRNRCQYCRFQKCLAVGMVKEVVRAD | 0.117 ± 0.067 |
| EGLCAVCGDNAACQHYGVRTCEGCKGFFKRTVQKNAKYVCLANKNCPVDKRRRNRCQYCRFQKCLAVGMVKEVVRMD | -0.166 ± 0.17 |
| EGLCAVCGDNAACQHYGVRTCEGCKGFFKRTVQKNAKYVCLANKNCPVDKRRRNRCQYCRFQKCLAVGMVKEVVRCD | 0.109 ± 0.057 |
| EGLCAVCGDNAACQHYGVRTCEGCKGFFKRTVQKNAKYVCLANKNCPVDKRRRNRCQYCRFQKCLAVGMVKEVVRLD | -0.228 ± 0.071 |
| EGLCAVCGDNAACQHYGVRTCEGCKGFFKRTVQKNAKYVCLANKNCPVDKRRRNRCQYCRFQKCLAVGMVKEVVRQD | -0.152 ± 0.19 |
